Reference: patent publication US6410226

B1: hsREC2 (human REC2, ATP-dependent homologous pairing protein) (protein)
chain: MGSKKLKRVGLSQELCDRLSRHQILTCQDFLCLSPLELMKVTGLSYRGVHELLCMVSRACAPKMQTAYGIKAQRSADFSPAFLSTTLSALDEALHGGVACGSLTEITGPPGCGKTQFCIMMSILATLPTNMGGLEGAVVYIDTESAFSAERLVEIAESRFPRYFNTEEKLLLTSSKVHLYRELTCDEVLQRIESLEEEIISKGIKLVILDSVASVVRKEFDAQLQGNLKERNKFLAREASSLKYLAEEFSIPVILTNQITTHLSGALASQADLVSPADDLSLSEGTSGSSCVIAALGNTWSHSVNTRLILQYLDSERRQILIAKSPLAPFTSFVYTIKEEGLVLQAYGNS
Hill coefficient of ATP hydrolysis (ATPase activity) at ATP concentrations of <100 µM: the Hill coefficient (1.8)
